Source: patent US20250163127A1
Like-named read-outs stand apart in the source and are kept apart here.

Columns and labels:
CD226 (human) = target: T1, CD226 (human) (UniProt Q15762); experiment: flow cytometry, transfected HEK293; secondary reagent alone
T1 sequence: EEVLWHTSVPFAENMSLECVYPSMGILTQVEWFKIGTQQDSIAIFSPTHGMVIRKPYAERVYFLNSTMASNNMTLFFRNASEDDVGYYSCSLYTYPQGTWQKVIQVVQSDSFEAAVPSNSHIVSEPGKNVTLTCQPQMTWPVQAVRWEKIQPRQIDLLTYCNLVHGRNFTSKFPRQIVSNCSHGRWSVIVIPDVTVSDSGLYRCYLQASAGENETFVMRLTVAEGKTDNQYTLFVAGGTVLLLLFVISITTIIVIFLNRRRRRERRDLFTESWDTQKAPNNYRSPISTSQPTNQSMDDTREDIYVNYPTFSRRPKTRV

CD112R (human) = CD112R (human) (UniProt Q6DKI7); experiment: as above
CD96 (human) = target: T2, CD96 (human) (UniProt P40200); experiment: as above
T2 sequence: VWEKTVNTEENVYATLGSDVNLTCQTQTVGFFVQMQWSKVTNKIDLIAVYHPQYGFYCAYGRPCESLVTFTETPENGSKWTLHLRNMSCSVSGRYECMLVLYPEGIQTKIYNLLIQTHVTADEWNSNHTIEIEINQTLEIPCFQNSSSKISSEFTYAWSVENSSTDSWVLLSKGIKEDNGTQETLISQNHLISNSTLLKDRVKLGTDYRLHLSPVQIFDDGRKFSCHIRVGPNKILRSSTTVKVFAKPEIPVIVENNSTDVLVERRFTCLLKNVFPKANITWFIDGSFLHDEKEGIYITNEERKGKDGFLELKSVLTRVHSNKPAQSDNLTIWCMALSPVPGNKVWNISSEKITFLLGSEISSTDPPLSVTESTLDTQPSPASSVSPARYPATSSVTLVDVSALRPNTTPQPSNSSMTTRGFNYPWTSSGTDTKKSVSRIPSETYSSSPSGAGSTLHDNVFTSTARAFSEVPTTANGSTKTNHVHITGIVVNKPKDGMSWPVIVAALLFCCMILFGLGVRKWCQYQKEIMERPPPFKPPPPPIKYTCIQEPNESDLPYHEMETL

TIGIT (human) = target: T3, TIGIT (human) (UniProt Q495A1); experiment: as above
T3 sequence: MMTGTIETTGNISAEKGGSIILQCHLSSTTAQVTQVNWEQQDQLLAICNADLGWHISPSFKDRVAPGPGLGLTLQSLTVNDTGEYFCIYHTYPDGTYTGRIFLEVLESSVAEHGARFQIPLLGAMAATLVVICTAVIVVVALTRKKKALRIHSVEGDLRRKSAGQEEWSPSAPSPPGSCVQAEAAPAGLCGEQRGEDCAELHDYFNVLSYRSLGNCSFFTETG

CD2 (human) [1] = target: CD2 (human) (UniProt P06729); experiment: flow cytometry, CHO-CD2 cells
Target sequence in this assay (P06729 25-351 limits assumed): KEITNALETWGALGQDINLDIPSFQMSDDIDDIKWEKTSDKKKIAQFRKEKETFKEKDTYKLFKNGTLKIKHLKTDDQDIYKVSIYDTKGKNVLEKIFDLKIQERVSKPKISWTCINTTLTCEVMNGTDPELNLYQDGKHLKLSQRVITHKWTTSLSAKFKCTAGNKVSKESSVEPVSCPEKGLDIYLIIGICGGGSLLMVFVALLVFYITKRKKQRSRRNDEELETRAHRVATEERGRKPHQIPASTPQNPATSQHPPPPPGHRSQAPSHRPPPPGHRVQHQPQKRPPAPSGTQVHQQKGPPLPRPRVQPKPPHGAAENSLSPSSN

CD2 (human) [2] = target: CD2 (human) (UniProt P06729)
Target sequence in this assay (P06729 25-351): as the sequence (P06729 25-351 limits assumed) above

PD-L1 (human) [3] = experiment: flow cytometry on HEK293 cells transfected with PD-L1; Fc control
CTLA-4 (human) [4] = experiment: flow cytometry on HEK293 cells transfected with CTLA4; Fc control
CD28 (human) [5] = target: CD28 (human) (UniProt P10747); experiment: flow cytometry on HEK293 cells transfected with CD28; Fc control
CD28 (human) [6] = target: CD28 (human) (UniProt P10747); experiment: flow cytometry, transfected cells
CD28 (human) [7] = target: CD28 (human) (UniProt P10747); experiment: flow cytometry, transfected cells; remark: listed apart in the source
CD28 (human) [8] = target: CD28 (human) (UniProt P10747); experiment: flow cytometry on HEK293 cells transfected with CD28
PD-L1 (human) [9] = experiment: flow cytometry on HEK293 cells transfected with PD-L1
Target sequence in this assay (chain, as listed by the source): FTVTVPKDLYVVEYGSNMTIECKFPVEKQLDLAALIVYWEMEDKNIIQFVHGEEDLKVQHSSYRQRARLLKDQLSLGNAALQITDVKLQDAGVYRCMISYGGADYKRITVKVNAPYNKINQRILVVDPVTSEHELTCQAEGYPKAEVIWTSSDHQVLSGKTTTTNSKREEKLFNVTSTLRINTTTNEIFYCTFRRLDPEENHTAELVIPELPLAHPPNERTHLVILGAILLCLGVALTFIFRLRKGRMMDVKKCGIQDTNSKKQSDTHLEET

CTLA-4 (human) [10] = experiment: flow cytometry on HEK293 cells transfected with CTLA4
Target sequence in this assay (chain, as listed by the source): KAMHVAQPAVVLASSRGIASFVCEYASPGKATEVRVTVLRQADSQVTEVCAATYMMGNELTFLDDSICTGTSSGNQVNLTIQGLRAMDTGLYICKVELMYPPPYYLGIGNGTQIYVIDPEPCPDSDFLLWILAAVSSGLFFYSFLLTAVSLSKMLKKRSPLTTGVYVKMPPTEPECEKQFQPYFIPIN

[11] = target: ICOS (Homo sapiens (Human)) (UniProt Q9Y6W8); experiment: flow cytometry, transfected cells
Chain of ICOS (Homo sapiens (Human)) (Q9Y6W8 21-199 limits assumed): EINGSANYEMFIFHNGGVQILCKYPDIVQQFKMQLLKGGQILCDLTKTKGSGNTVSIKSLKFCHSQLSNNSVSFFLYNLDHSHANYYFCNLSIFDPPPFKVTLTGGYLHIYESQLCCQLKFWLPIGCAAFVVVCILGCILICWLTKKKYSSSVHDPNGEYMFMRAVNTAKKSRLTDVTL

[12] = target: CTLA-4 (Homo sapiens (Human)) (UniProt P16410); experiment: flow cytometry, transfected cells
[13] = target: ICOS (Homo sapiens (Human)) (UniProt Q9Y6W8); experiment: flow cytometry, transfected cells; remark: listed apart in the source
[14] = target: CTLA-4 (Homo sapiens (Human)) (UniProt P16410); experiment: flow cytometry, transfected cells; remark: listed apart in the source
[15] = target: ICOS (Homo sapiens (Human)) (UniProt Q9Y6W8); experiment: flow cytometry, transfected cells; remark: listed apart in the source
[16] = target: CTLA-4 (Homo sapiens (Human)) (UniProt P16410); experiment: flow cytometry, transfected cells; remark: listed apart in the source
PD-1-Fc (human) = PD-1-Fc (human) (UniProt Q15116); experiment: ForteBio Octet, PD-1 on anti-human capture sensor, 100 nM
Chain of PD-1-Fc (human) (Q15116 25-167 limits assumed): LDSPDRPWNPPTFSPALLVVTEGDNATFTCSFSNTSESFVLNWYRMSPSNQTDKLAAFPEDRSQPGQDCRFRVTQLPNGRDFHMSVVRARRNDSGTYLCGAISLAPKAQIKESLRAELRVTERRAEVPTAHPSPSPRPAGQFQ

human PD-1 (human) = human PD-1 (human) (UniProt Q15116)
Chain of human PD-1 (human) (Q15116 25-288): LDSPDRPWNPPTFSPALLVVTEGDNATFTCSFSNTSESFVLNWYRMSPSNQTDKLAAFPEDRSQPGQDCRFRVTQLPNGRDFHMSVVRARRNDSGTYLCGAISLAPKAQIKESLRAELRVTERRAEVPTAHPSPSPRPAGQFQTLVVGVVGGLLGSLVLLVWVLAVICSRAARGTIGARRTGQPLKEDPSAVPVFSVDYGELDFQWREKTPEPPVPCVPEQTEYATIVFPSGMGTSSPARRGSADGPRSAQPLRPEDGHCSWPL

Chain of Wildtype ICOSL ECD-Fc (Fc fusion) (chain): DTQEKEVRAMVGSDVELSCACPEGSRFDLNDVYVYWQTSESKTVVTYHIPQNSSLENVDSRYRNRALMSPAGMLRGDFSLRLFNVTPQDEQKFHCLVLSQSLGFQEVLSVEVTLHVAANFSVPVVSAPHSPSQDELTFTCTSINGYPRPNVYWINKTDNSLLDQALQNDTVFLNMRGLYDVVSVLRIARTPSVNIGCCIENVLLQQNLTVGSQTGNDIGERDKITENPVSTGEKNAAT
Chain of WT CD80 IgV-Fc (inert) (Fc fusion) (chain): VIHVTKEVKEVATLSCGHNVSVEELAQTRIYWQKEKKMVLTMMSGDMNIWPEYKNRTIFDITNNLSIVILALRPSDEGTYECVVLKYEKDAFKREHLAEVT

Substance: Anti-huFc PE (tool reagent)
- MFI at 20 nM (CD226 (human)): 1010
- MFI at 20 nM (CD112R (human)): 1010
- MFI at 20 nM (CD96 (human)): 1060
- MFI at 20 nM (TIGIT (human)): 1140

Substance: CD58 (WT) 3650-Fc (Fc fusion)
- EC50 (CD2 (human) [1]): 200 pM
- 100 nM IFN-gamma (pg/mL), SEB assay (CD2 (human) [2]): 9660 pg/mL

Substance: Fc only
- MFI at 22.2 nM (PD-L1 (human) [3]): 4740 MFI
- MFI at 66.6 nM (CTLA-4 (human) [4]): 5960 MFI
- MFI at 66.6 nM (CD28 (human) [5]): 2590 MFI

Substance: ICOSL ECD-Fc N30D/K42E/N52S/H115R/F172S/N194D (Fc fusion)
- MFI (CD28 (human) [6]): 4400 MFI

Substance: ICOSL ECD-Fc N52Q/N84Q/N168Q (Fc fusion)
- MFI (CD28 (human) [7]): 1580 MFI

Substance: WT CD80 IgV-Fc (inert) (Fc fusion)
- MFI at 66.6 nM (CD28 (human) [8]): 1620 MFI
- MFI at 22.2 nM (PD-L1 (human) [9]): 1770 MFI
- MFI at 66.6 nM (CTLA-4 (human) [10]): 20700 MFI

Substance: Wildtype ICOSL ECD-Fc (Fc fusion)
- MFI [11]: 83800 MFI
- MFI [12]: 4770 MFI
- MFI [13]: 36600 MFI
- MFI [14]: 3800 MFI
- MFI [15]: 212000 MFI
- MFI [16]: 330000 MFI

Substance: variant PD-L2 IgV I13V/H15Q/R76G/I85F Fc fusion
- Fortebio Response Units (Response Units) (PD-1-Fc (human)): -0.04
- IFN gamma levels pg/mL (MLR) (human PD-1 (human)): 1530 pg/mL
